Experimental data: article PMC9638917, “Non-canonical Staphylococcus aureus pathogenicity island repression”

What was measured:
[1] = molecular target: SaPI1 Stl repressor L201E mutant (Stl^(SaPI1 L201E)), untagged, co-expressed with His6-Sri (Staphylococcus aureus (pathogenicity island SaPI1)); assay: crystal structure; 80α Sri-Stl^(SaPI1 L201E), His6-tag of Sri removed; sitting drop, 15 °C, 0.1 M Tris-HCl pH 8.5, 22% PEG350; molecular replacement, 2.97 Å
[2] = molecular target: SaPI1 Stl repressor (Stl^SaPI1), untagged, co-expressed with His6-Sri (Staphylococcus aureus (pathogenicity island SaPI1)); assay: SEC-MALS; 2 mg/ml, Stl alone or in complex with Sri; 50 mM Tris-HCl pH 7.5, 250 mM NaCl, 5 mM MgCl2; Protein KW403 column (Shodex), 0.4 ml/min
[3] = molecular target: SaPI1 Stl repressor (Stl^SaPI1), untagged, co-expressed with His6-Sri (Staphylococcus aureus (pathogenicity island SaPI1)); assay: crystal structure; 80α Sri-Stl^SaPI1 SeMet derivative, His6-tag of Sri removed; sitting drop, 15 °C, 0.4 M ammonium phosphate, 25% PEG200; SAD, 2.9 Å
[4] = molecular target: SaPI1 Stl repressor (Stl^SaPI1), untagged, co-expressed with His6-Sri (Staphylococcus aureus (pathogenicity island SaPI1)); assay: SEC-SAXS; 10.0 mg/ml Stl^SaPI1 and 6.5 mg/ml Stl^SaPI1-Sri (His6 tag on Sri); Superdex 200 Increase 3.2, 10 mM Tris pH 8, 1% (w/v) sucrose; mass by Bayesian inference
[5] = molecular target: SaPI1 Stl repressor L201E mutant (Stl^(SaPI1 L201E)), expressed alone (Staphylococcus aureus (pathogenicity island SaPI1)); assay: SEC-MALS; 2 mg/ml, Stl alone or in complex with Sri; 50 mM Tris-HCl pH 7.5, 250 mM NaCl, 5 mM MgCl2; Protein KW403 column (Shodex), 0.4 ml/min
[6] = molecular target: SaPI1 Stl repressor (Stl^SaPI1), expressed alone with an N-terminal His6-tag and TEV site (Staphylococcus aureus (pathogenicity island SaPI1)); assay: as above
[7] = molecular target: SaPI1 Stl repressor (Stl^SaPI1), expressed alone with an N-terminal His6-tag and TEV site (Staphylococcus aureus (pathogenicity island SaPI1)); assay: SEC-SAXS; 10.0 mg/ml Stl^SaPI1 and 6.5 mg/ml Stl^SaPI1-Sri (His6 tag on Sri); Superdex 200 Increase 3.2, 10 mM Tris pH 8, 1% (w/v) sucrose; mass by Bayesian inference
StlSaPI1 = StlSaPI1 (Staphylococcus aureus pathogenicity …, UniProt O54475 1-247); assay: EMSA; two complex species; BLI: 50 mM Tris-HCl pH 8, 300 mM NaCl, 5 mM MgCl2, 50 uM EDTA, 0.005% Tween, 25 C; EMSA: 50 mM Tris-HCl pH 8, 5 mM MgCl2, 1 mM DTT, 0.1 mM EDTA, 5% glycerol, 1; conditions: protein: recombinant; tags: N-terminal His6 + TEV site; chain copies: 4; near blunt as printed

Molecule: SaPI1 Stl repressor L201E mutant (Stl^(SaPI1 L201E)), untagged, co-expressed with His6-Sri (natural protein)
- stoichiometry N [1]: 2

Molecule: SaPI1 Stl repressor (Stl^SaPI1), untagged, co-expressed with His6-Sri (natural protein)
- stoichiometry N [2]: 4
- stoichiometry N [3]: 4
- stoichiometry N [4]: 4

Molecule: SaPI1 Stl repressor L201E mutant (Stl^(SaPI1 L201E)), expressed alone (natural protein)
- stoichiometry N [5]: 2

Molecule: SaPI1 Stl repressor (Stl^SaPI1), expressed alone with an N-terminal His6-tag and TEV site (natural protein)
- stoichiometry N [6]: 4
- stoichiometry N [7]: 4

B1: Operator 1-4 (dsDNA)
DNA 1: GGATAAGTTGTACTTTGAGTACAATATTTTAAAAAATGAAAAAAAAAAAAGAAGTGTGTAATATTTGTTTAAAAAACAAAAAAAAAAAAAGTACTTGTAGTACTAAAAGAAC
DNA 2: GGTTCTTTTAGTACTACAAGTACTTTTTTTTTTTTTGTTTTTTAAACAAATATTACACACTTCTTTTTTTTTTTTCATTTTTTAAAATATTGTACTCAAAGTACAACTTATCC
- binding result (StlSaPI1): binds
